Measured values: US20230220042A1 (SHANGHAI JIAO TONG UNIVERSITY SCHOOL OF MEDICINE, published 2023)

T1: Biotin-FcγRIIB (human, UniProt P31994 43-217, limits assumed, biotin label)
T1 construct: Soluble labelled protein used to stain and sort the display cells; also called human FcγRIIB; CD32b
T1 sequence (looked up): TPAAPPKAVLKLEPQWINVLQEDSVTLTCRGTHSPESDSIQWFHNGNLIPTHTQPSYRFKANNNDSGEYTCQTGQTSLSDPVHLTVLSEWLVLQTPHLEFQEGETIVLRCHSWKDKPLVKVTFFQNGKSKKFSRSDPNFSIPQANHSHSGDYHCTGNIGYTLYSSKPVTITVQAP


target: T1, Biotin-FcγRIIB; test: NGS of 3T3 display library C2 flow-sorted for FcγRIIB binding

| enrichment factor, percentage after 1st sorting/percentage before sorting | enrichment factor, percentage after 2nd sorting/percentage after 1st sorting | enrichment factor, percentage after 3rd sorting/percentage after 2nd sorting | enrichment factor, percentage after 3rd sorting/percentage before sorting | increased factor, mutant enrichment factor/wild-type enrichment factor | percentage after 1st sorting | percentage after 2nd sorting | percentage after 3rd sorting | percentage before sorting | Binder |
| --- | --- | --- | --- | --- | --- | --- | --- | --- | --- |
| 214 ratio | 2.92 ratio | 2.94 ratio | 1840 ratio | 1310 ratio | 0.14% | 0.42% | 1.22% | 0% | human IgG2 anti-mouse CD40 surface displayed antibody, V266L/S267E/E269K/P271G (antibody, name in EU numbering, As m1 with the Fc mutations) light chain (with the P2A rest): DTVLTQSPALAVSPGERVTISCRASDSVSTLMHWYQQKPGQQPKLLIYLASHLESGVPARFSGSGSGTDFTLTIDPVEADDTATYYCQQSWNDPWTFGGGTKLELKRTVAAPSVFIFPPSDEQLKSGTASVVCLLNNFYPREAKVQWKVDNALQSGNSQESVTEQDSKDSTYSLSSTLTLSKADYEKHKVYACEVTHQGLSSPVTKSFNRGECGSGATNFSLLKQAGDVEENPG heavy chain: EVQLVESDGGLVQPGRSLKLPCAASGFTFSDYYMAWVRQAPTKGLEWVASISYDGSSTYYRDSVKGRFTISRDNAKSTLYLQMDSLRSEDTATYYCGRHSSYFDYWGQGVMVTVSSASTKGPSVFPLAPCSRSTSESTAALGCLVKDYFPEPVTVSWNSGALTSGVHTFPAVLQSSGLYSLSSVVTVPSSNFGTQTYTCNVDHKPSNTKVDKTVERKCCVECPPCPAPPVAGPSVFLFPPKPKDTLMISRTPEVTCVVVDLEHKDGEVQFNWYVDGVEVHNAKTKPREEQFNSTFRVVSVLTVVHQDWLNGKEYKCKVSNKGLPAPIEKTISKTKGQPREPQVYTLPPSREEMTKNQVSLTCLVKGFYPSDIAVEWESNGQPENNYKTTPPMLDSDGSFFLYSKLTVDKSRWQQGNVFSCSVMHEALHNHYTQKSLSLSPGKLEPPPSTVSNMATVAVLVVLGAAIVTGAVVAFVMKMRRRNTGGKGGDYALAPGSQTSDLSLPDCKVMVHDPHSLA |
| 32.7 ratio | 9.34 ratio | 5.2 ratio | 1590 ratio | 1130 ratio | 0.03% | 0.24% | 1.23% | 0% | human IgG2 anti-mouse CD40 surface displayed antibody, V266L/S267E/H268S/E269G/P271T (antibody, name in EU numbering, As m1 with the Fc mutations) light chain (with the P2A rest): DTVLTQSPALAVSPGERVTISCRASDSVSTLMHWYQQKPGQQPKLLIYLASHLESGVPARFSGSGSGTDFTLTIDPVEADDTATYYCQQSWNDPWTFGGGTKLELKRTVAAPSVFIFPPSDEQLKSGTASVVCLLNNFYPREAKVQWKVDNALQSGNSQESVTEQDSKDSTYSLSSTLTLSKADYEKHKVYACEVTHQGLSSPVTKSFNRGECGSGATNFSLLKQAGDVEENPG heavy chain: EVQLVESDGGLVQPGRSLKLPCAASGFTFSDYYMAWVRQAPTKGLEWVASISYDGSSTYYRDSVKGRFTISRDNAKSTLYLQMDSLRSEDTATYYCGRHSSYFDYWGQGVMVTVSSASTKGPSVFPLAPCSRSTSESTAALGCLVKDYFPEPVTVSWNSGALTSGVHTFPAVLQSSGLYSLSSVVTVPSSNFGTQTYTCNVDHKPSNTKVDKTVERKCCVECPPCPAPPVAGPSVFLFPPKPKDTLMISRTPEVTCVVVDLESGDTEVQFNWYVDGVEVHNAKTKPREEQFNSTFRVVSVLTVVHQDWLNGKEYKCKVSNKGLPAPIEKTISKTKGQPREPQVYTLPPSREEMTKNQVSLTCLVKGFYPSDIAVEWESNGQPENNYKTTPPMLDSDGSFFLYSKLTVDKSRWQQGNVFSCSVMHEALHNHYTQKSLSLSPGKLEPPPSTVSNMATVAVLVVLGAAIVTGAVVAFVMKMRRRNTGGKGGDYALAPGSQTSDLSLPDCKVMVHDPHSLA |
| 229 ratio | 6.6 ratio | 0.78 ratio | 1180 ratio | 844 ratio | 2.59% | 17.1% | 13.3% | 0.01% | human IgG2 anti-mouse CD40 surface displayed antibody, V266L/S267M/H268E/P271Q (antibody, name in EU numbering, As m1 with the Fc mutations) light chain (with the P2A rest): DTVLTQSPALAVSPGERVTISCRASDSVSTLMHWYQQKPGQQPKLLIYLASHLESGVPARFSGSGSGTDFTLTIDPVEADDTATYYCQQSWNDPWTFGGGTKLELKRTVAAPSVFIFPPSDEQLKSGTASVVCLLNNFYPREAKVQWKVDNALQSGNSQESVTEQDSKDSTYSLSSTLTLSKADYEKHKVYACEVTHQGLSSPVTKSFNRGECGSGATNFSLLKQAGDVEENPG heavy chain: EVQLVESDGGLVQPGRSLKLPCAASGFTFSDYYMAWVRQAPTKGLEWVASISYDGSSTYYRDSVKGRFTISRDNAKSTLYLQMDSLRSEDTATYYCGRHSSYFDYWGQGVMVTVSSASTKGPSVFPLAPCSRSTSESTAALGCLVKDYFPEPVTVSWNSGALTSGVHTFPAVLQSSGLYSLSSVVTVPSSNFGTQTYTCNVDHKPSNTKVDKTVERKCCVECPPCPAPPVAGPSVFLFPPKPKDTLMISRTPEVTCVVVDLMEEDQEVQFNWYVDGVEVHNAKTKPREEQFNSTFRVVSVLTVVHQDWLNGKEYKCKVSNKGLPAPIEKTISKTKGQPREPQVYTLPPSREEMTKNQVSLTCLVKGFYPSDIAVEWESNGQPENNYKTTPPMLDSDGSFFLYSKLTVDKSRWQQGNVFSCSVMHEALHNHYTQKSLSLSPGKLEPPPSTVSNMATVAVLVVLGAAIVTGAVVAFVMKMRRRNTGGKGGDYALAPGSQTSDLSLPDCKVMVHDPHSLA |
|  | 6.97 ratio | 12.6 ratio |  |  | 0% | 0.01% | 0.11% |  | human IgG2 anti-mouse CD40 surface displayed antibody, V266L/S267E/H268S/E269V/P271C (antibody, name in EU numbering, As m1 with the Fc mutations) light chain (with the P2A rest): DTVLTQSPALAVSPGERVTISCRASDSVSTLMHWYQQKPGQQPKLLIYLASHLESGVPARFSGSGSGTDFTLTIDPVEADDTATYYCQQSWNDPWTFGGGTKLELKRTVAAPSVFIFPPSDEQLKSGTASVVCLLNNFYPREAKVQWKVDNALQSGNSQESVTEQDSKDSTYSLSSTLTLSKADYEKHKVYACEVTHQGLSSPVTKSFNRGECGSGATNFSLLKQAGDVEENPG heavy chain: EVQLVESDGGLVQPGRSLKLPCAASGFTFSDYYMAWVRQAPTKGLEWVASISYDGSSTYYRDSVKGRFTISRDNAKSTLYLQMDSLRSEDTATYYCGRHSSYFDYWGQGVMVTVSSASTKGPSVFPLAPCSRSTSESTAALGCLVKDYFPEPVTVSWNSGALTSGVHTFPAVLQSSGLYSLSSVVTVPSSNFGTQTYTCNVDHKPSNTKVDKTVERKCCVECPPCPAPPVAGPSVFLFPPKPKDTLMISRTPEVTCVVVDLESVDCEVQFNWYVDGVEVHNAKTKPREEQFNSTFRVVSVLTVVHQDWLNGKEYKCKVSNKGLPAPIEKTISKTKGQPREPQVYTLPPSREEMTKNQVSLTCLVKGFYPSDIAVEWESNGQPENNYKTTPPMLDSDGSFFLYSKLTVDKSRWQQGNVFSCSVMHEALHNHYTQKSLSLSPGKLEPPPSTVSNMATVAVLVVLGAAIVTGAVVAFVMKMRRRNTGGKGGDYALAPGSQTSDLSLPDCKVMVHDPHSLA |
| 60.5 ratio | 3.84 ratio | 7.11 ratio | 1650 ratio | 1180 ratio | 0.25% | 0.95% | 6.76% | 0% | human IgG2 anti-mouse CD40 surface displayed antibody, V266L/S267E/H268S/E269A/P271C (antibody, name in EU numbering, As m1 with the Fc mutations) light chain (with the P2A rest): DTVLTQSPALAVSPGERVTISCRASDSVSTLMHWYQQKPGQQPKLLIYLASHLESGVPARFSGSGSGTDFTLTIDPVEADDTATYYCQQSWNDPWTFGGGTKLELKRTVAAPSVFIFPPSDEQLKSGTASVVCLLNNFYPREAKVQWKVDNALQSGNSQESVTEQDSKDSTYSLSSTLTLSKADYEKHKVYACEVTHQGLSSPVTKSFNRGECGSGATNFSLLKQAGDVEENPG heavy chain: EVQLVESDGGLVQPGRSLKLPCAASGFTFSDYYMAWVRQAPTKGLEWVASISYDGSSTYYRDSVKGRFTISRDNAKSTLYLQMDSLRSEDTATYYCGRHSSYFDYWGQGVMVTVSSASTKGPSVFPLAPCSRSTSESTAALGCLVKDYFPEPVTVSWNSGALTSGVHTFPAVLQSSGLYSLSSVVTVPSSNFGTQTYTCNVDHKPSNTKVDKTVERKCCVECPPCPAPPVAGPSVFLFPPKPKDTLMISRTPEVTCVVVDLESADCEVQFNWYVDGVEVHNAKTKPREEQFNSTFRVVSVLTVVHQDWLNGKEYKCKVSNKGLPAPIEKTISKTKGQPREPQVYTLPPSREEMTKNQVSLTCLVKGFYPSDIAVEWESNGQPENNYKTTPPMLDSDGSFFLYSKLTVDKSRWQQGNVFSCSVMHEALHNHYTQKSLSLSPGKLEPPPSTVSNMATVAVLVVLGAAIVTGAVVAFVMKMRRRNTGGKGGDYALAPGSQTSDLSLPDCKVMVHDPHSLA |
| 99.9 ratio | 12.8 ratio | 1.95 ratio | 2500 ratio | 1780 ratio | 0.17% | 2.13% | 4.15% | 0% | human IgG2 anti-mouse CD40 surface displayed antibody, V266L/S267E/H268S/E269V (antibody, name in EU numbering, As m1 with the Fc mutations) light chain (with the P2A rest): DTVLTQSPALAVSPGERVTISCRASDSVSTLMHWYQQKPGQQPKLLIYLASHLESGVPARFSGSGSGTDFTLTIDPVEADDTATYYCQQSWNDPWTFGGGTKLELKRTVAAPSVFIFPPSDEQLKSGTASVVCLLNNFYPREAKVQWKVDNALQSGNSQESVTEQDSKDSTYSLSSTLTLSKADYEKHKVYACEVTHQGLSSPVTKSFNRGECGSGATNFSLLKQAGDVEENPG heavy chain: EVQLVESDGGLVQPGRSLKLPCAASGFTFSDYYMAWVRQAPTKGLEWVASISYDGSSTYYRDSVKGRFTISRDNAKSTLYLQMDSLRSEDTATYYCGRHSSYFDYWGQGVMVTVSSASTKGPSVFPLAPCSRSTSESTAALGCLVKDYFPEPVTVSWNSGALTSGVHTFPAVLQSSGLYSLSSVVTVPSSNFGTQTYTCNVDHKPSNTKVDKTVERKCCVECPPCPAPPVAGPSVFLFPPKPKDTLMISRTPEVTCVVVDLESVDPEVQFNWYVDGVEVHNAKTKPREEQFNSTFRVVSVLTVVHQDWLNGKEYKCKVSNKGLPAPIEKTISKTKGQPREPQVYTLPPSREEMTKNQVSLTCLVKGFYPSDIAVEWESNGQPENNYKTTPPMLDSDGSFFLYSKLTVDKSRWQQGNVFSCSVMHEALHNHYTQKSLSLSPGKLEPPPSTVSNMATVAVLVVLGAAIVTGAVVAFVMKMRRRNTGGKGGDYALAPGSQTSDLSLPDCKVMVHDPHSLA |
